From patent US20170183403A1 (UNIVERSIT T Z RICH, published 2017)

Legend:
Test in all cases: peptide microarray (RepliTope), 15-mers
Reference peptide no. 38 = biological target: T1, Reference peptide no. 38
T1 construct: hIL-2 15-mer, first library, parental Cys replaced by Ser, on microarray; also called peptide 38
T1 peptide: ATIVEFLNRWITFSQ
Procedure: (§1) Additional incubations are with unrelated antibodies from the same isotype (mouse control IgG2a/lambda and mouse control IgG2a/kappa), and secondary antibodies (anti-mouse IgG (Thermo 84545, label DL650) or anti-mouse IgG (JIR 115-175-072, Label Cy5)) to assess unspecific binding due to the detection antibody. The experiments are performed essentially as described in Maksimov P, et al. 2012, PLoS One 7:e34212. doi:10.1371/journal. pone. 0034212.
(§2) The determination of peptide-antibody binding was performed by RepliTope-analysis where the peptide microarray (triplicate) was incubated with the primary antibody followed by a fluorescently labelled secondary antibody directed against the Fc-part of the primary one. All steps were performed on a TECAN microarray processing station enabling highly reliable and reproducible washing and incubation steps. After performing the incubation steps and subsequent to the final washing steps (to remove the unbound secondary antibodies) the microarrays were dried using a nitrogen stream and scanned in a high resolution microarray scanning system with appropriate wavelength settings. Control incubations were performed with an unrelated antibody having the same isotype to exclude false positive signals.
(§3) The resulting images were analyzed und quantified using spot-recognition software GenePix (Molecular Devices). For each spot, the mean signal intensity was extracted (between 0 and 65535 arbitrary units). For further data evaluation, the MMC2 values were determined. The MMC2 equals the mean value of all three instances on the microarray. Except the coefficient of variation (CV)—standard-deviation divided by the mean value—is larger 0.5, in this case the mean of the two closest values (MC2) is assigned to MMC2.

Reference peptide no. 56 = biological target: T2, Reference peptide no. 56
T2 construct: second library: peptide 20 with L(92) to Ala; parental Cys replaced by Ser; also called peptide 56
T2 peptide: SLEEELKPLEEVLNA
Procedure: as §1, §2, §3

Reference peptide no. 43 = biological target: T3, Reference peptide no. 43
T3 construct: second library: peptide 11 with F(62) to Ala; also called peptide 43
T3 peptide: YKNPKLTRMLTAKFY
Procedure: as §1, §2, §3

Reference peptide no. 13 = biological target: T4, Reference peptide no. 13
T4 construct: hIL-2 15-mer, first library, on microarray; also called peptide 13
T4 peptide: TRMLTFKFYMPKKAT
Procedure: as §1, §2, §3

Reference peptide no. 4 = biological target: T5, Reference peptide no. 4
T5 construct: hIL-2 15-mer, first library, on microarray; also called peptide 4
T5 peptide: TQLQLEHLLLDLQMI
Procedure: as §1, §2, §3

Reference peptide no. 9 = biological target: T6, Reference peptide no. 9
T6 construct: hIL-2 15-mer, first library, on microarray; also called peptide 9
T6 peptide: LNGINNYKNPKLTRM
Procedure: as §1, §2, §3

Reference peptide no. 57 = biological target: T7, Reference peptide no. 57
T7 construct: second library: peptide 21 with L(92) to Ala; also called peptide 57
T7 peptide: EELKPLEEVLNAAQS
Procedure: as §1, §2, §3

Reference peptide no. 44 = biological target: T8, Reference peptide no. 44
T8 construct: second library: peptide 12 with F(62) to Ala; also called peptide 44
T8 peptide: PKLTRMLTAKFYMPK
Procedure: as §1, §2, §3

Reference peptide no. 6 = biological target: T9, Reference peptide no. 6
T9 construct: hIL-2 15-mer, first library, on microarray; also called peptide 6
T9 peptide: HLLLDLQMILNGINN
Procedure: as §1, §2, §3

Reference peptide no. 11 = biological target: T10, Reference peptide no. 11
T10 construct: hIL-2 15-mer, first library, on microarray; also called peptide 11
T10 peptide: YKNPKLTRMLTFKFY
Procedure: as §1, §2, §3

Reference peptide no. 37 = biological target: T11, Reference peptide no. 37
T11 construct: hIL-2 15-mer, first library, on microarray; also called peptide 37
T11 peptide: DETATIVEFLNRWIT
Procedure: as §1, §2, §3

Reference peptide no. 51 = biological target: T12, Reference peptide no. 51
T12 construct: second library: peptide 15 with Y(65) to Ala; also called peptide 51
T12 peptide: KFAMPKKATELKHLQ
Procedure: as §1, §2, §3

Reference peptide no. 15 = biological target: T13, Reference peptide no. 15
T13 construct: hIL-2 15-mer, first library, on microarray; also called peptide 15
T13 peptide: KFYMPKKATELKHLQ
Procedure: as §1, §2, §3

Reference peptide no. 25 = biological target: T14, Reference peptide no. 25
T14 construct: hIL-2 15-mer, first library, on microarray; also called peptide 25
T14 peptide: AQSKNFHLRPRDLIS
Procedure: as §1, §2, §3

Reference peptide no. 17 = biological target: T15, Reference peptide no. 17
T15 construct: hIL-2 15-mer, first library, parental Cys replaced by Ser, on microarray; also called peptide 17
T15 peptide: KATELKHLQSLEEEL
Procedure: as §1, §2, §3

Reference peptide no. 20 = biological target: T16, Reference peptide no. 20
T16 construct: hIL-2 15-mer, first library, parental Cys replaced by Ser, on microarray; also called peptide 20
T16 peptide: SLEEELKPLEEVLNL
Procedure: as §1, §2, §3

Reference peptide no. 22 = biological target: T17, Reference peptide no. 22
T17 construct: hIL-2 15-mer, first library, on microarray; also called peptide 22
T17 peptide: KPLEEVLNLAQSKNF
Procedure: as §1, §2, §3

Reference peptide no. 27 = biological target: T18, Reference peptide no. 27
T18 construct: hIL-2 15-mer, first library, on microarray; also called peptide 27
T18 peptide: HLRPRDLISNINVIV
Procedure: as §1, §2, §3

Reference peptide no. 7 = biological target: T19, Reference peptide no. 7
T19 construct: hIL-2 15-mer, first library, on microarray; also called peptide 7
T19 peptide: LDLQMILNGINNYKN
Procedure: as §1, §2, §3

Reference peptide no. 32 = biological target: T20, Reference peptide no. 32
T20 construct: hIL-2 15-mer, first library, parental Cys replaced by Ser, on microarray; also called peptide 32
T20 peptide: LELKGSETTFMSEYA
Procedure: as §1, §2, §3

Reference peptide no. 23 = biological target: T21, Reference peptide no. 23
T21 construct: hIL-2 15-mer, first library, on microarray; also called peptide 23
T21 peptide: EEVLNLAQSKNFHLR
Procedure: as §1, §2, §3

Reference peptide no. 29 = biological target: T22, Reference peptide no. 29
T22 construct: hIL-2 15-mer, first library, on microarray; also called peptide 29
T22 peptide: LISNINVIVLELKGS
Procedure: as §1, §2, §3

Reference peptide no. 31 = biological target: T23, Reference peptide no. 31
T23 construct: hIL-2 15-mer, first library, parental Cys replaced by Ser, on microarray; also called peptide 31
T23 peptide: VIVLELKGSETTFMS
Procedure: as §1, §2, §3

Reference peptide no. 46 = biological target: T24, Reference peptide no. 46
T24 construct: second library: peptide 14 with F(62) to Ala; also called peptide 46
T24 peptide: LTAKFYMPKKATELK
Procedure: as §1, §2, §3

binding result (Reference peptide no. 38): no binding
binding result (Reference peptide no. 56): no binding
binding result (Reference peptide no. 43): no binding
binding result (Reference peptide no. 13): no binding
binding result (Reference peptide no. 4): no binding
binding result (Reference peptide no. 9): no binding
binding result (Reference peptide no. 57): no binding
binding result (Reference peptide no. 44): no binding
binding result (Reference peptide no. 6): no binding
binding result (Reference peptide no. 11): no binding
binding result (Reference peptide no. 37): no binding
binding result (Reference peptide no. 51): no binding
binding result (Reference peptide no. 15): no binding
binding result (Reference peptide no. 25): no binding
binding result (Reference peptide no. 17): no binding
binding result (Reference peptide no. 20): no binding
binding result (Reference peptide no. 22): no binding
binding result (Reference peptide no. 27): no binding
binding result (Reference peptide no. 7): no binding
binding result (Reference peptide no. 32): no binding
binding result (Reference peptide no. 23): no binding
binding result (Reference peptide no. 29): no binding
binding result (Reference peptide no. 31): no binding
binding result (Reference peptide no. 46): no binding
B1: NARA1 (antibody, mouse IgG2a, kappa, V domains shown)
VH: QVQLQQSGAELVRPGTSVKVSCKASGYAFTNYLIEWVKQRPGQGLEWIGVINPGSGGTNYNEKFKGKATLTADKSSSTAYMQLSSLTSDDSAVYFCARWRGDGYYAYFDVWGAGTTVTVSS
VL: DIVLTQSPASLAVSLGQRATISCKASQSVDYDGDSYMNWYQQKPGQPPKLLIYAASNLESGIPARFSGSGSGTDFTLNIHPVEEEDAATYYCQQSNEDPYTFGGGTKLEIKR
notes: Mouse monoclonal from hybridoma; Isotype controls used were mouse IgG2a; also called anti-IL2 (NARA1) antibody; monoclonal antibody NARA1
